# Values quoted from earlier work, collected in patent US20100311759A1, “ANTIPARASITIC AGENT FOR FISH AND METHOD OF CONTROLLING PROLIFERATION OF FISH PARASITES” (NIPPON SUISAN KAISHA, LTD., priority 2007, published 2010).
# Test system: White spot disease
# Details: 40 mg per 1 kg of fish body weight orally per day, 28-day experimental period
molecule,measurement,value
"lactoferrin: marketed as an additive for fisheries; thought to increase non-specific biophylactic ability of host fish (protein, UniProt P24627 20-708, looked up) Lactotransferrin: APRKNVRWCTISQPEWFKCRRWQWRMKKLGAPSITCVRRAFALECIRAIAEKKADAVTLDGGMVFEAGRDPYKLRPVAAEIYGTKESPQTHYYAVAVVKKGSNFQLDQLQGRKSCHTGLGRSAGWIIPMGILRPYLSWTESLEPLQGAVAKFFSASCVPCIDRQAYPNLCQLCKGEGENQCACSSREPYFGYSGAFKCLQDGAGDVAFVKETTVFENLPEKADRDQYELLCLNNSRAPVDAFKECHLAQVPSHAVVARSVDGKEDLIWKLLSKAQEKFGKNKSRSFQLFGSPPGQRDLLFKDSALGFLRIPSKVDSALYLGSRYLTTLKNLRETAEEVKARYTRVVWCAVGPEEQKKCQQWSQQSGQNVTCATASTTDDCIVLVLKGEADALNLDGGYIYTAGKCGLVPVLAENRKSSKHSSLDCVLRPTEGYLAVAVVKKANEGLTWNSLKDKKSCHTAVDRTAGWNIPMGLIVNQTGSCAFDEFFSQSCAPGADPKSRLCALCAGDDQGLDKCVPNSKEKYYGYTGAFRCLAEDVGDVAFVKNDTVWENTNGESTADWAKNLNREDFRLLCLDGTRKPVTEAQSCHLAVAPNHAVVSRSDRAAHVKQVLLHQQALFGKNGKNCPDKFCLFKSETKNLLFNDNTECLAKLGGRPTYEEYLGTEYVTAIANLKKCSTSPLLEACAFLTR",infection,no infection was observed
